Laboratory results from patent US20160159921A1.

Key:
FcγRIIIa (F) variant = FcγRIIIa (F) variant (UniProt P08637); assay: SPR (ProteOn XPR36), antibody captured on immobilized HER-2, FcγR as analyte, 1:1 Langmuir fit
FcγRIIb = FcγRIIb (UniProt P31994); assay: as above
Chain of UniProt P31994 (P31994 43-217 limits assumed): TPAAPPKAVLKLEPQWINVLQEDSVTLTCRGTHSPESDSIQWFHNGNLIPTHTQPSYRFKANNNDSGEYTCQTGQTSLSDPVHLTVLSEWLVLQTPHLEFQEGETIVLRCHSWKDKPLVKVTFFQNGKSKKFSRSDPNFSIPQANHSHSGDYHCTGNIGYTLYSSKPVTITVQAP

Chain of UniProt P08637 (P08637 17-208 limits assumed, change not shown): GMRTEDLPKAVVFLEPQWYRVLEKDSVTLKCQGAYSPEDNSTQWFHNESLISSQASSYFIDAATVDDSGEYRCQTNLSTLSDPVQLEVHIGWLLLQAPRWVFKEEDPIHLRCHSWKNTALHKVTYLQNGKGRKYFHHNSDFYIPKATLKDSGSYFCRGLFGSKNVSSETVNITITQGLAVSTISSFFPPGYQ

Kd (FcγRIIIa (F) variant): 0.429 µM | Kd (FcγRIIb): 7.63 µM
Substance: Trastuzumab variant G237F/S298A/A330L/I332E (antibody)
